Experiment: soluble on expression in E. coli; label from the status in PepcDB or PDB records

Sequence	soluble on expression in E. coli
MSLRTTIADVAQAAGVSVSTVSRALRGLDRVSPETRERIEQEAKRLHFSFSKSASSLASGKTMRVAVLLPNEISSWFNAHAFEGIYEVMSKAGYDIVPYIVWTQDDLDAFFQNLPGNRNVDAVIEASFDFDEAKKQVLGNLTIPVVGMNAPSTHGLDAGVAIDDEASMATIVRFLKSLGHKTLAYIEQPINTTPFVCSDRLRKKGFSEASQACGYADEDIIVMPSLSHIDARSEQDIYSGIVAQLLSAPKQPTAICVSVDAVAAPLLKELRRMGWRVPQDVSLVGFDDDDTATALDLTTMHQDPAEIGRIAARKTLALLNGETLDEPFTVMPTSLVLRGTTERVSEGHHHHHH	soluble
MSNHDQLHRYLFANHAVRGELVSVNETYQQVLANHDYPPAVQKLLGEMLVATSLLTATLKFDGDITVQLQGGDGPLTLAVINGNNRQEMRGVARVKGEISDDSTLQEMVGNGYLVITITPAQGERYQGVVALEGETIAACLENYFMQSEQLPTRLFIRTGHVADKAAAGGMLLQVLPAQERNEDEFDHLAQLTATIKAEELFTLPANEVLYRLYHQEEVTLYEPQNVSFRCTCSRQRCADALVTLADDDVTEMLEQDGNIDMHCEYCGNHYLFDAVDIATLKNGNSASSEQIH	not soluble
MGSDKIHHHHHHMAYLEVLRYLYHKRPMGKVKPGLERISMLLSKLGNPHLEYKTIHIGGTNGKGSVANMVSNILVSQGYRVGSYYSPHLSTFRERIRLNEEYISEEDVVKIYETMEPILNELDKEEIFSPSFFEVVTAMAFLYFAEKNVDIAVLEVGLGGRLDATNVVFPLCSTIVTVDRDHEKTLGYTIEQIAWEKSGIIKERVPLVTGERKREALKVMEDVARKKSSRMYVIDKDFSVKVKSLKLHENRFDYCGENTFEDLVLTMNGPHQIENAGVALKTLEATGLPLSEKAIREGLKNAKNLGRFEILEKNGKMYILDGAHNPHGAESLVRSLKLYFNGEPLSLVIGILDDKNREDILRKYTGIFERVIVTRVPSPRMKDMNSLVDMAKKFFKNVEVIEDPLEAIESTERATVVTGSLFLVGYVREFLTTGKINEEWKL	soluble
MDFHLRNKLNLPGNLPQPPNTNLNLPPNVPALLIQSSIKYSELEKFVRRGLHASGVFVIEDPTTTGVAQLKILSERWGDLPTAIDIQGRAQEYSLRYAAIFTLIDGNGEVVVPQQVIELSRDYRSPPVDATGTTTEREILVNELRRDMSASILRRIDSVIRSRLEKRELLEQAKPPSPATSGALEHHHHHH	not soluble
MGSDKIHHHHHHMATTNAASTVRELIREHYSALTQAERKFANALLDNYPAAGLASITIVASNVGVSSPTVARMVKKLGFKGYPEFHKALLSELEAKGVGPTKRRDNWSSEAPQEHLLNRFSQAVTNNLQQTFAHIDTERFDQATRQLADTEKRLYIVGGRITQALADYAFTHFQAVRPGVTHMTSSSGTWPHYVLDMEPGDTLLIFDVRRYETNLLRLTEIVKKRGAQIVLFTDQWGSPISTLADLTFHCRVEIPSGWDSNVATMMLLETMIASVQEQRWPDARDRYERLDELFDKTHFFRKFT	not soluble
MGSDKIHHHHHHMSNLKHTRHNSHNVRHHSTGNSMNYVSTGQGEAILLIHGLFGNLDNLKGLGQALEAHHQVIRVDVPNHGLSEHRQQMDYPSLAKAMVDLLDELELERVHIVGHSMGGKIAMATALAYPNRIISLVAADIAPVAYQPRHNAVFAALESLPLEGHTDRRFALAHLLAAGIDDATAQFLLKNLQRSGTGFRWKMNLTGLKSGYPNIIGWHNLPNEPQLVFAGPSLFIRGGDSNYVAAAHRDEILRQFPQAQAKTLEGCGHWLHAQKPTIFNRIVSEFIDKHTV	not soluble
GAPLKAVSAFAPPLHTQDFNLYSGEVHAHFTDYEAGMAFARQENKPVLLDFSGHGCVNCRKMENAVWIDPTVKSMLEKDYVLITLMVDEKKPLAEPLTIVFDGKEKTLRTVGDKWSYLQSHKFGANAQPFYVAIDHEGKPLSASYSYNEDVPLYVDFLKGGLQEFKKRKNK	not soluble
MGSDKIHHHHHHMDDITPSDIQAQAIAAIRDWFHSRTDEQQVFRLFGFAGTGKSTVLKFALDDLGLSPHAEDRPGVVTATFTGKAALVLRRKGTPARTIHSLIYSVIEATDEEIEEAGKRITQAELNARGLIGFDRTAAEAAIEAMRQTLRDMKKPRFALNPDSPAASAKLIVLDEVSMVGDEMARDLMSFERPILVLGDPGQLPPIKGEGAFTQAAPDIMLTEIHRQAAESAIIRLATMAREGQPIGFGQYDDHAWKMRMADVTPQQALRGGQVICGRNTTRFQLNNALRRAAGFGGSYLPTGADEKVICLKNQNDLGLINGMFLTLADIVDEGSVYFSATVTDEVGTPIGPPAKDGKPGRLMLYKGHFEDHVALDPHRHDRDWRDKKKLTEATFGWAITCHKAQGSQWENVIVWDDGLGRTEQDRRRWLYTAITRAERGLVILA	not soluble
MSGNPGSSLSALRPTPPERGSFPLDHDGECTKYMQEYLKCMQLVQNENAMNCRLLAKDYLRCRMDHQLMDYDEWSHLGLPEDAPGNNGKTIKDATDNK	not soluble
MTEKLKNSKEVIAYIAECFPKCFTLEGEAKPLKIGIFQDLAERLNEDEKVSKTQLRAALRQYTSSWRYLHGVKPGAVRVDLDGNPCGELEEEHVEHAKATLAESKAKVQARRKEQAQKAREEGKAKAKPAANKKPQQPRRTNKPKVQKPTK	not soluble
MGSDKIHHHHHHMTLLRGDDFFTSRAVTVAVEPRTPQTAFPEHYHDFWEIVLVEQGAGVHVFNDQPYALCSGSVFFVRDNDRHLFEDVEGLCLTNMLYRSPRGFRFLSDIAAFLPYGPNGEWQGQWQVNAAGMQQLKQSLNSLAGLAQSDAPEAIAASESLFLQILVQLRQHCFQTEGNGSERQGVQALLGWLQNNYSEEVNWGGLADQFSLPLRTLHRQLKQHTGMTPQRYLNRLRLLEARRRLQQSDDSITTIAHACGFSDSNHFSTQFRKAFSQAPKSLRHQAFSREE	not soluble
MGSDKIHHHHHHMELSQNAPNELEYIREFLNTWRIPNDTREAIDLLQTEEDIKLFMKEYFHEEFPFHTIEELKSFREDIRMTIEGEGSLEKWLEKYPFHVYIKEDMKGITYEPIHEETVYTKVLSIVLIAVQENLWGRLKACPDCRWVFYDNSRNGSKRWCGMYAGEEGGRACGTIAKVKNYRAKRKGRSGYNV	not soluble
MYNNSELRKIQQKKLEILIDIAKFCNENKIRYWLDSGTLLGAVRHGGFIPWDDDIDIIIMQEDAKFLKENYKSENFEIVNTDEEGINFYKVISKKEQVQVGDSIAELDIDIFLVTYYPDSLALKFWNSFFHLKKNRIDRFSFSLFFTNILINLKRKLEKTKLFNYKNIEKKISYILDEAKKKNKAMPNIAYTPDCGFYLIIWREEEIFPLKKMKFEGIEFSIPNNYDTYLKKMYYSYMDLPPKEKRVPEHYQDKELKLIIKLEHHHHHH	not soluble
MNDEIISNLHMLSAVHRSLPRDARKDYLSRVRGKVEHLYKAIQGNKKPEINFEVSLEEAKLADKYLKDAKKVRIGNTMSDRDEYLGLLEIADNDERKCVFIHVSIGGIEEGCIVIQLFNDIVPRTAQNFESWCTGEKRGKYGEPLHLKECEIKMILPGSVIGFGDFEENCEYFDDEKSKENHCKNVLSMNIDKSENSSAPLFNMELSDGVDRAGKAIVFGKVVMGNRVIEKVLLAGSRDGIPEQTVKISDCGEMFRGGHSHF	not soluble
MGSDKIHHHHHHADIETCTVPGDVLNRDPIIGNDQITLPLKKGTNISKLAPEFTLTPGATINPESGVVRDFSTPQKYVVTSEDGKWKKEYEVTALFSGIPTSYHFENALPVKDKKGNILYYNFQESDAIGNILNWANANEGFNYTGVQAKPEEYPTSPAPDGVQGNCVKLTTKDTGSLGALLKMYIAAGNLFMGSFTLDIGNVLRATKFGVPFTHIPTSFKGYYKYKAGEVFTVKGEPVSGRKDICDIYAVFYETDDKVKSLDGTNVFTSPNLISIARISNAKETEQWTEFNLPFITLPGKTVDSQKLEDGKYNVAIVFSSSIKGDLFEGAAGSTLYIDEVELSYRDIK	not soluble
MSLGDQLKIIQDGQSFAFSLDTLLLAYWAKEAIKNRSKVVELCSGNAAASLYMAAFNKAHYDDVELQEDIVSKARRSVELNDMQDRITVHQGNVKDAGSFLRKDSYDVVVVNPPYFKAPAGHKLNPDRSKAIARHELEINLEEIIAVSAGLLKMKGKMFMVHRPERLGEIINYGFKHDLAVKTVQPFVSRRGQDANLVIVEAVRSGKGDGLVLRDAIEVHEADGSNTPAIKEILEAKEGHHHHHH	soluble
MSLEAIVFDRSEPENVSVKVLDQLLLPYTTKYVPIHTIDDGYSVIKSMQVRGAPAIAIVGSLSVLTEVQLIKHNPTSDVATLYSLVNWESTKTVLNKRLDFLLSSRPTAVNLSNSLVEIKNILKSSSDLKAFDGSLYNYVCELIDEDLANNMKMGDNGAKYLIDVLQKDGFKDEFAVLTICNTGSLATSGYGTALGVIRSLWKDSLAKTDK	soluble
MASSAQSGGSSGGPAVPTVQRGIIKMVLSGCAIIVRGQPRGGPPPERQINLSNIRAGNLARRAAATQPDAKDTPDEPWAFPAREFLRKKLIGKEVCFTIENKTPQGREYGMIYLGKDTNGENIAESLVAEGLATRREGMRANNPEQNRLSECEEQAKAAKKGMWSEGNGSHTIRDLKYTIENPRHFVDSHHQKPVNAIIEHVRDGSVVRALLLPDYYLVTVMLSGIKCPTFRREADGSETPEPFAAEAKFFTESRLLQRDVQIILESCHNQNILGTILHPNGNITELLLKEGFARCVDWSIAVYTRGAEKLRAAERVAKERRLRIWRDYVAPTANLDQKDKQFVAKVMQVLNADAIVVKLNSGDYKTIHLSSIRPPRLEGENTQDKNKKLRPLYDIPYMFEAREFLRKKLIGKKVNVTVDYIRPASPATETVPAFSERTCATVTIGGINIAEALVSKGLATVIRYRQDDDQRSSHYDELLAAEARAIKNGKGLHSKKEVPIHRVADISGDTQKAKQFLPFLQRAGRSEAVVEYVFSGSRLKLYLPKETCLITFLLAGIECPRGARNLPGLVQEGEPFSEEATLFTKELVLQREVEVEVESMDKAGNFIGWLHIDGANLSVLLVEHALSKVHFTAERSSYYKSLLSAEEAAKQKKEKVWAHYEEQPVEEVMPVLEEKERSASYKPVFVTEITDDLHFYVQDVETGTQLEKLMENMRNDIASHPPVEGSYAPRRGEFCIAKFVDGEWYRARVEKVESPAKIHVFYIDYGNREVLPSTRLGTLSPAFSTRVLPAQATEYAFAFIQVPQDDDARTDAVDSVVRDIQNTQCLLNVEHLSAGCPHVTLQFADSKGDVGLGLVKEGLVMVEVRKEKQFQKVITEYLNAQESAKSARLNLWRYGDFRADDADEFGYSR	soluble
MGSDKIHHHHHHMNFKDCIDSYPFILMEGALGERLKREFDLDISGTVAMADLVYQQKGRLALETLWNEYIDIAYRYQLPFLATTPTRRANKERIYMAGYNESIIADNVDFLRSIKEAANVDMYIGGLMGCKGDAYTGEEALNLEEAIDFHSWQAGLFKSAKVDFLYAGIMPVLTEAIGMAVAMSDTDIPYIISFTIQRDGKLIDGHTIDDAIHCIDNHVSNKPVCYMTNCVHPDIVYEALSHKFNQTQTVKSRFWGIQANTSQLSYKELDGANHLHTSSAADLSEAILKLKSDCHLKIFGGCCGTDSSHMEKIAKISEVT	not soluble
MTVPHIPRGPVMADIAAFRLTEEEKQRLLDPAVGGIILFRRNFQNIEQLKTLTAEIKALRTPELIIAVDHEGGRVQRFIEGFTRLPAMSTLGEIWDKDGASAAETAAGQVGRVLATELSACGIDLSFTPVLDLDWGNCPVIGNRSFHRNPEAVARLALALQKGLTKGGMKSCGKHFPGHGFVEGDSHLVLPEDWRSLSELETADLAPFRIMSREGMAAVMPAHVVYPQVDTKPAGFSEIWLKQILRRDIGFKGVIFSDDLTMEGACGAGGIKERARISFEAGCDIVLVCNRPDLVDELREDFRIPDNPTLAQRWQYMANTLGSAAAQAVMQTADFQAAQAFVAGLASPQDTAGGVKVGEAF	not soluble
